Measured values published in the supplement of paper PMC10126150.
± gives the standard deviation of the averaged measurements.

These sequences were tested on ATP (assay: switch fluorescence ratio, 500 uM ATP over buffer (Cy3 cluster intensity, sum of 5 cycles each) (fold (ratio)); higher = stronger signal-on switching upon ATP binding; sequences stand for … in TCGTCGGCAGCGTCAGATGTGTATAAGAGACAGTTTTTTTTTTTTTTTTTTTTTTTTT…TC). Conditions: aptamer strand: ATP DNA aptamer (quencher-CACCTGGGGGAGTATTGCGGAGGAAGG + anchor), 100 nM annealed; ATP concentration: 500 uM.
Method in brief: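 Cy3-labelled switching-strand clusters on a modified Illumina MiSeq flow-cell were annealed to 100 nM quencher-labelled ATP aptamer and imaged first in selection buffer, then after 15 min with 500 uM ATP at 22 °C. NaOH stripping and re-annealing separated each of five buffer/ATP cycles, and clusters outside 100-1000 RFU were excluded. The fluorescence ratio sums target-cycle Cy3 intensity over buffer-cycle Cy3 intensity per cluster and averages it per switch-domain sequence.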
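Further: ATP exposure 15 min at 22 °C before imaging.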

Row | Sequence | switch fluorescence ratio
1 | ATAATCGGTG | 0.981 ± 0.041
2 | CCTCAAAAAA | 2.98 ± 0.2
3 | GATTGTGTTA | 1.01 ± 0.043
4 | ATGGGGGAAA | 0.991 ± 0.011
5 | GGGGGGCCTG | 0.982 ± 0.038
6 | TTTGGTAGCT | 0.9596 ± 0.0037
7 | GTTGTTGCTT | 0.982 ± 0.029
8 | TATGTTATAT | 0.991 ± 0.029
9 | AATAAGCTGG | 0.984 ± 0.033
10 | TGCGGTGTGC | 1.04 ± 0.017
11 | GACGAAGGT | 1.01 ± 0.052
12 | TTTGGAGGGG | 1.03 ± 0.039
13 | GTGCGAGAAC | 1.01 ± 0.025
14 | GTTGCTTGCG | 1 ± 0.02
15 | GAGTGGCTGG | 0.979 ± 0.014
16 | CTCCTAGTCA | 1.05 ± 0.061
17 | CTCATATTCA | 1.02 ± 0.027
18 | ATAGTGATAT | 1.06 ± 0.11
19 | TATCCCAGGC | 1.31 ± 0.032
20 | CGTTGGCCGT | 1.03 ± 0.085
21 | GCCAGGCTGG | 1.04 ± 0.021
22 | TAAACAAACG | 1.12 ± 0.028
23 | AGGCACGACG | 0.9561 ± 0.0074
24 | CCAGGTTTTG | 1.08 ± 0.031
25 | CGCGGGTTGC | 1.06 ± 0.042
26 | GGGGCATAGG | 0.9777 ± 0.0015

Row | Sequence | switch fluorescence ratio
27 | TTTTATAATT | 1.04 ± 0.089
28 | AATTGCGGGA | 0.9893 ± 0.0085
29 | TTTGCTGAAA | 0.964 ± 0.026
30 | CAGGTTATAT | 1.03 ± 0.028
31 | TTTTAAGGGT | 0.999 ± 0.036
32 | TGGGGCGGCG | 0.976 ± 0.03
33 | GAGATAGGTT | 1.03 ± 0.073
34 | TCAGCCTAGG | 1.02 ± 0.023
35 | ACACCCGCGC | 1.45 ± 0.064
36 | TGGCTTGGGG | 1.03 ± 0.051
37 | TTCGGTGTTT | 1.02 ± 0.022
38 | CGTGGGGCGA | 1.03 ± 0.025
39 | AAAGGGGACG | 1.01 ± 0.017
40 | GAGGGTCATC | 0.935 ± 0.056
41 | AATAGAATAC | 1.163 ± 0.0021
42 | CTTGTAAGAA | 1.02 ± 0.05
43 | ATCACGGGGG | 1.02 ± 0.019
44 | CTAGCTGCGA | 1.08 ± 0.055
45 | TTAATTTATC | 0.9982 ± 0.0026
46 | TAGGCTGTAC | 2.84 ± 1.6
47 | GGGAATAAGC | 0.978 ± 0.034
48 | TACAGAGGTT | 1.01 ± 0.059
49 | TCAGGAGTTT | 1.04 ± 0.011
50 | ACATATTTGA | 1.01 ± 0.03
51 | AACTAGGTGT | 1.15 ± 0.22
52 | ACGTGTTTGT | 1.03 ± 0.018

Row | Sequence | switch fluorescence ratio
53 | GAAATAATAA | 1.01 ± 0.011
54 | GCTTTGGAAG | 0.985 ± 0.034
55 | TTGGGGCTTT | 1.02 ± 0.056
56 | AGTCTTAGTC | 0.9497 ± 0.002
57 | TCACATTTTA | 0.995 ± 0.04
58 | TAGAGCGGGG | 0.99 ± 0.02
59 | ATGATGGTGG | 1.02 ± 0.057
60 | AGTTTAAGTG | 1.01 ± 0.013
61 | AACTCGTAGG | 0.995 ± 0.018
62 | GGGTCGGCCG | 0.983 ± 0.033
63 | GGGCGGGCTG | 1.006 ± 0.0084
64 | TTATCTAGTG | 0.9894 ± 0.0054
65 | TACCGGGTGG | 1.06 ± 0.027
66 | ACGAAGGGGG | 1.14 ± 0.24
67 | GGCACTAGAC | 1.09 ± 0.11
68 | GGGAATAACT | 0.998 ± 0.037
69 | ATGAAAAGGA | 0.97123 ± 0.00096
70 | ATGGGGGGTC | 0.985 ± 0.041
71 | ATTGGGCAGC | 1 ± 0.027
72 | TGAGGAAAGG | 1.17 ± 0.25
73 | GGTAATAAGG | 1.05 ± 0.028
74 | TCTAAGTTGT | 1.002 ± 0.0058
75 | GCGGGGACGC | 0.9982 ± 0.0021
76 | GGCGTCCTTT | 0.994 ± 0.031
77 | GCTCTTATTA | 0.977 ± 0.021
78 | GGACGACCGG | 1.02 ± 0.027

Row | Sequence | switch fluorescence ratio
79 | GGTGCGGCTG | 1.01 ± 0.073
80 | GACATAGCGG | 1.07 ± 0.03
81 | AAAAAAACA | 1.2 ± 0.11
82 | CGAGGGTGCA | 1.04 ± 0.021
83 | TTTTTCACTA | 1.03 ± 0.033
84 | GTGGACTTGC | 0.973 ± 0.042
85 | GAAGTTTTTG | 0.993 ± 0.017
86 | TTCTTTTATA | 0.99 ± 0.04
87 | TTTTTGTCGC | 0.992 ± 0.025
88 | AGGTTTTTAG | 0.944 ± 0.024
89 | GTATGGGAAA | 1.04 ± 0.054
90 | GGGCCAGGGC | 1.02 ± 0.02
91 | GATGGTTGAA | 0.984 ± 0.021
92 | TTTTGAATCG | 1.008 ± 0.0091
93 | CTGATGTGGC | 1.06 ± 0.011
94 | AGCTATCACG | 1 ± 0.032
95 | TGGACGGGGC | 1.034 ± 0.0099
96 | TTTGTGTTTG | 0.999 ± 0.016
97 | CGCTTAATTA | 1.01 ± 0.041
98 | GATGGTTAGA | 0.998 ± 0.036
99 | CGACGTTGGT | 1.08 ± 0.043
100 | TAAATGTTAA | 0.9889 ± 0.0051
101 | GTTGGAATTG | 0.992 ± 0.024
102 | AACGGTTTTT | 0.972 ± 0.036
103 | GTGTAAAGGC | 0.96 ± 0.021
104 | GCTATTATAT | 1.02 ± 0.015

Row | Sequence | switch fluorescence ratio
105 | TGGATTGGGT | 1 ± 0.046
106 | CCGAATTGGG | 1.01 ± 0.032
107 | GGGATTGAAT | 1.01 ± 0.032
108 | CGAAAGAGAG | 0.9911 ± 0.0022
109 | TTTAGGGAGT | 0.985 ± 0.015
110 | ATGATCAGTG | 0.98 ± 0.056
111 | CAAGGGCCCA | 0.994 ± 0.014
112 | CAGGCGACTG | 0.9706 ± 0.0041
113 | GCTATGGGAT | 0.995 ± 0.04
114 | TTGGGGGAGG | 0.989 ± 0.021
115 | CCACCGGGCC | 1.36 ± 0.076
116 | TAAAGCGAAC | 1.29 ± 0.098
117 | GGGGTATTGT | 1.007 ± 0.0034
118 | TTTGTCGCTG | 1.01 ± 0.038
119 | CTGATGGGGT | 1 ± 0.013
120 | ATAGGTCAAC | 0.992 ± 0.044
121 | AAAGGTATGG | 0.961 ± 0.018
122 | AGGGTATTTG | 0.987 ± 0.011
123 | AGGGGCCAGT | 0.98 ± 0.019
124 | AAGGTCGTCG | 0.9834 ± 0.0076
125 | GTTATCGTGC | 0.992 ± 0.059
126 | GACAGTCAAA | 1.01 ± 0.04
127 | TTTGTAGTTT | 1.03 ± 0.055
128 | GATTGGGGTA | 0.978 ± 0.038
129 | CGAACGGTGG | 0.998 ± 0.056
130 | AGGCCTCTGT | 0.99 ± 0.011

Row | Sequence | switch fluorescence ratio
131 | TCTGCTAAAG | 1.01 ± 0.022
132 | TTTCGAATAT | 0.9836 ± 0.0061
133 | GGGGAGTAGG | 1.03 ± 0.049
134 | TTATCGGGG | 0.942 ± 0.053
135 | TTAAAGGTAA | 1.018 ± 0.0094
136 | AGTGTGTTTT | 0.996 ± 0.015
137 | TTTCGTGTGA | 1.015 ± 0.0062
138 | GTGGTTGGAA | 0.963 ± 0.022
139 | TAGTTCATGG | 0.991 ± 0.019
140 | GGGCAAGGTT | 0.9682 ± 0.0065
141 | GTTTTATGAT | 0.967 ± 0.016
142 | GGTGCTTATA | 1 ± 0.013
143 | ATAGGGAGAG | 0.987 ± 0.016
144 | AGTCAGTTGG | 0.967 ± 0.041
145 | TGGTTACGCT | 1.028 ± 0.0084
146 | TCAGTAAGTT | 0.995 ± 0.021
147 | TATTGAGGAG | 1.01 ± 0.011
148 | TATTACTGAG | 1.07 ± 0.036
149 | TCCTGGGTTT | 1.27 ± 0.48
150 | TCTCGACTCA | 0.999 ± 0.02
151 | GCTCTTGGGC | 0.999 ± 0.012
152 | GAGCTTGCTG | 0.9992 ± 0.0083
153 | ATGTTAGGTT | 1 ± 0.029
